Two molecules from patent publication US20210393713A1 (University of Pennsylvania, published 2021) can be followed below.

This test addresses T1, Twin-Strep-tagged LY6A, BALB/cJ variant (GPI-anchor truncated, soluble) (mouse (BALB/cJ), UniProt P05533 27-111).
T1 construct: range 1-111; also called BALB/cJ LY6A; BABL/cJ LY6A; not shown: Twin-Strep-tag from vector pESG-IBA103
T1 sequence: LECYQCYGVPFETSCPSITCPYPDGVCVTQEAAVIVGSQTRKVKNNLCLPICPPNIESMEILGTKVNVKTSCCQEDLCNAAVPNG
Put plainly: ELISA, AAV particles on plate-bound Twin-Strep-tagged LY6A.

Residue numbers refer to the chain shown, from its start. Names may count otherwise.

B1: AAV-PHP.B V592G mutant capsid (other)
chain: MAADGYLPDWLEDNLSEGIREWWALKPGAPQPKANQQHQDNARGLVLPGYKYLGPGNGLDKGEPVNAADAAALEHDKAYDQQLKAGDNPYLKYNHADAEFQERLKEDTSFGGNLGRAVFQAKKRLLEPLGLVEEAAKTAPGKKRPVEQSPQEPDSSAGIGKSGAQPAKKRLNFGQTGDTESVPDPQPIGEPPAAPSGVGSLTMASGGGAPVADNNEGADGVGSSSGNWHCDSQWLGDRVITTSTRTWALPTYNNHLYKQISNSTSGGSSNDNAYFGYSTPWGYFDFNRFHCHFSPRDWQRLINNNWGFRPKRLNFKLFNIQVKEVTDNNGVKTIANNLTSTVQVFTDSDYQLPYVLGSAHEGCLPPFPADVFMIPQYGYLTLNDGSQAVGRSSFYCLEYFPSQMLRTGNNFQFSYEFENVPFHSSYAHSQSLDRLMNPLIDQYLYYLSRTINGSGQNQQTLKFSVAGPSNMAVQGRNYIPGPSYRQQRVSTTVTQNNNSEFAWPGASSWALNGRNSLMNPGPAMASHKEGEDRFFPLSGSLIFGKQGTGRDNVDADKVMITNEEEIKTTNPVATESYGQVATNHQSAQTLAGPFKAQAQTGWVQNQGILPGMVWQDRDVYLQGPIWAKIPHTDGNFHPSPLMGGFGMKHPPPQILIKNTPVPADPPTAFNKDKLNSFITQYSTGQVSVEIEWELQKENSKRWNPEIQYTSNYYKSNNVEFAVNTEGVYSEPRPIGTRYLTRNL
Regarding B1, the binding result is listed as “no binding”.

B2: AAV-PHP.eB capsid (other)
chain: B1 chain with A587D, Q588G, G592V
With B2, the binding result is given as “binds”.
